Results reported in IntAct's records for PubMed 28258151.

B1: Complement factor H (Homo sapiens), P08603 (parent)
chain: MRLLAKIICLMLWAICVAEDCNELPPRRNTEILTGSWSDQTYPEGTQAIYKCRPGYRSLGNVIMVCRKGEWVALNPLRKCQKRPCGHPGDTPFGTFTLTGGNVFEYGVKAVYTCNEGYQLLGEINYRECDTDGWTNDIPICEVVKCLPVTAPENGKIVSSAMEPDREYHFGQAVRFVCNSGYKIEGDEEMHCSDDGFWSKEKPKCVEISCKSPDVINGSPISQKIIYKENERFQYKCNMGYEYSERGDAVCTESGWRPLPSCEEKSCDNPYIPNGDYSPLRIKHRTGDEITYQCRNGFYPATRGNTAKCTSTGWIPAPRCTLKPCDYPDIKHGGLYHENMRRPYFPVAVGKYYSYYCDEHFETPSGSYWDHIHCTQDGWSPAVPCLRKCYFPYLENGYNQNYGRKFVQGKSIDVACHPGYALPKAQTTVTCMENGWSPTPRCIRVKTCSKSSIDIENGFISESQYTYALKEKAKYQCKLGYVTADGETSGSITCGKDGWSAQPTCIKSCDIPVFMNARTKNDFTWFKLNDTLDYECHDGYESNTGSTTGSIVCGYNGWSDLPICYERECELPKIDVHLVPDRKKDQYKVGEVLKFSCKPGFTIVGPNSVQCYHFGLSPDLPICKEQVQSCGPPPELLNGNVKEKTKEEYGHSEVVEYYCNPRFLMKGPNKIQCVDGEWTTLPVCIVEESTCGDIPELEHGWAQLSSPPYYYGDSVEFNCSESFTMIGHRSITCIHGVWTQLPQCVAIDKLKKCKSSNLIILEEHLKNKKEFDHNSNIRYRCRGKEGWIHTVCINGRWDPEVNCSMAQIQLCPPPPQIPNSHNMTTTLNYRDGEKVSVLCQENYLIQEGEEITCKDGRWQSIPLCVEKIPCSQPPQIEHGTINSSRSSQESYAHGTKLSYTCEGGFRISEENETTCYMGKWSSPPQCEGLPCKSPPEISHGVVAHMSDSYQYGEEVTYKCFEGFGIDGPAIAKCLGEKWSHPPSCIKTDCLSLPSFENAIPMGEKKDVYKAGEQVTYTCATYYKMDGASNVTCINSRWTGRPTCRDTSCVNPPTVQNAYIVSRQMSKYPSGERVRYQCRSPYEMFGDEEVMCLNGNWTEPPQCKDSTGKCGPPPPIDNGDITSFPLSVYAPASSVEYQCQNLYQLEGNKRITCRNGQWSEPPKCLHPCVISREIMENYNIALRWTAKQKLYSRTGESVEFVCKRGYRLSSRSHTLRTTCWDGKLEYPTCAKR

Variants of: B1
Conditions: with sdre_staam sdrE

Variant | effect of a mutation on the interaction
K1222A | with no effect
Y1225A | increasing interaction
T1216A | increasing interaction
T1213A | increasing interaction
S1209A | decreasing interaction
L1223A | increasing interaction
E1224A | increasing interaction
H1212A | increasing interaction
S1211A | decreasing interaction
L1214A | increasing interaction
S1208A | disrupting interaction
L1207A | decreasing interaction
R1215A | with no effect
W1219A | with no effect
R1210A | increasing interaction
C1218A | increasing interaction
D1220A | with no effect
T1217A | with no effect
P1226A | decreasing interaction
R1206A | disrupting interaction
